# Assay results: PMC11544209
# T1: PsCas9 WT (UniProt PDB:8UMF_1 1-1462)
# T1 sequence: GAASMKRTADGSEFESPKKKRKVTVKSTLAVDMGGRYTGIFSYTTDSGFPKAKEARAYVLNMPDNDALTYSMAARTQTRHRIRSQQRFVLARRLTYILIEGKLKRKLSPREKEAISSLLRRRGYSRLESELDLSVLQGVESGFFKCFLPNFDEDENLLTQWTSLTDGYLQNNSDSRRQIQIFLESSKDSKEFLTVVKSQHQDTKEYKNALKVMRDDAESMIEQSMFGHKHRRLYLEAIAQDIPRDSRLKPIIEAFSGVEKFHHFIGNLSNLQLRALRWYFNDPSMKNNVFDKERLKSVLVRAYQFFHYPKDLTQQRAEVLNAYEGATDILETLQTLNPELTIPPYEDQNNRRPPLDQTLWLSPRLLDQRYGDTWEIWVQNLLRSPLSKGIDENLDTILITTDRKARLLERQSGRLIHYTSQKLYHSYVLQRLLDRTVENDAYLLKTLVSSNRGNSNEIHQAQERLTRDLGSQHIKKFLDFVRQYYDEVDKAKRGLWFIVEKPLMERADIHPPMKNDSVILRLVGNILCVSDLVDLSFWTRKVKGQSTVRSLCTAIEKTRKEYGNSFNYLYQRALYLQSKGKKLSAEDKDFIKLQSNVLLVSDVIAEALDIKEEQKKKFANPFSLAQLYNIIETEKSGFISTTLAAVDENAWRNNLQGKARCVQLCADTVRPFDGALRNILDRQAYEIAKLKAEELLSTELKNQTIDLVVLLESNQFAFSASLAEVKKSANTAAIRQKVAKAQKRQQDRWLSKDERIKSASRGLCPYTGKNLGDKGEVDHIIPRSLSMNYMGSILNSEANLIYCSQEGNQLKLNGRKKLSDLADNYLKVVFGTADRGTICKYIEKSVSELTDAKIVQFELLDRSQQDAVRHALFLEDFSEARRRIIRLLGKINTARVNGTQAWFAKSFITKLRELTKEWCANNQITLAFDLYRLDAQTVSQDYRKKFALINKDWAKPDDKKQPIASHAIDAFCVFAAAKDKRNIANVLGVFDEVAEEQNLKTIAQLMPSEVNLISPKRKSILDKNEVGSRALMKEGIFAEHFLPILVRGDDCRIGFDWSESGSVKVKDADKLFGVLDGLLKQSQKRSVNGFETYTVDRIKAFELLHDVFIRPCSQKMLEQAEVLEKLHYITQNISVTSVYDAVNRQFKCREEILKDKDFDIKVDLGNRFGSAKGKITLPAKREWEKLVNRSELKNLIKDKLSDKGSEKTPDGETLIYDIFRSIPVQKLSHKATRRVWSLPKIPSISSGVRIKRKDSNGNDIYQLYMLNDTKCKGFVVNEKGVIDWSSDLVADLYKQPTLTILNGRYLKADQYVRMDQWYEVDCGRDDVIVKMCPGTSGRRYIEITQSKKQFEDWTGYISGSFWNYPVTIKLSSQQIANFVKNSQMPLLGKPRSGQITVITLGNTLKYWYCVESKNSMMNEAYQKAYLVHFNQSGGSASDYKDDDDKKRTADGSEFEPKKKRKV
# Molecular target: T1, PsCas9 WT
# Test: fluorescence polarization
binder,measurement,value
EMX1a 38 bp target + PsCas9 original EMX1a sgRNA (mixed) DNA 1: TGTATGTCACCTCCAATGACTAGGGTGGTACACAAACA DNA 2: TGTTTGTGTACCACCCTAGTCATTGGAGGTGACATACA,Kd,~112 nM
